Measurements reported in the supplement of paper PMC5998384.

Columns and labels:
HeLa Kyoto [1] = assay: melting temperature (median over replicates), in situ; higher = more thermally stable
HeLa Kyoto [2] = assay: solubility in G1/S (NP-40 vs SDS abundance) (log2 ratio); higher = more soluble; details: cell cycle stage: G1/S
HeLa Kyoto [3] = assay: solubility change mitosis vs G1/S (difference of NP-40 vs SDS log2 ratios) (log2 ratio difference); higher = more soluble in mitosis
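Throughout, for melting temperature (median over replicates), in situ: HeLa Kyoto cells synchronized by double thymidine or nocodazole block, proteins quantified by TMT10plex mass spectrometry, three independent biological replicates.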
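Throughout, for solubility change mitosis vs G1/S (difference of NP-40 vs SDS log2 ratios): synchronized HeLa Kyoto cells (double thymidine block for G1/S, nocodazole release for mitosis), protein amounts in NP-40 versus SDS lysates quantified by mass spectrometry, three biological replicates.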
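Throughout, for solubility in G1/S (NP-40 vs SDS abundance): HeLa Kyoto cells arrested at G1/S by double thymidine block, proteins quantified by TMT10plex mass spectrometry in mild NP-40 versus SDS extracts, three biological replicates.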

Row | Sequence | melting temperature (HeLa Kyoto [1]; cell cycle stage: G1/S) | melting temperature (HeLa Kyoto [1]; cell cycle stage: mitosis) | solubility in G1/S (log2) (HeLa Kyoto [2]) | solubility change mitosis (log2) (HeLa Kyoto [3])
1 | MGSQALPPGPMQTLIFFDMEATGLPFSQPKVTELCLLAVHRCALESPPTSQGPPPTVPPPPRVVDKLSLCVAPGKACSPAASEITGLSTAVLAAHGRQCFDDNLANLLLAFLRRQPQPWCLVAHNGDRYDFPLLQAELAMLGLTSALDGAFCVDSITALKALERASSPSEHGPRKSYSLGSIYTRLYGQSPPDSHTAEGDVLALLSICQWRPQALLRWVDAHARPFGTIRPMYGVTASARTKPRPSAVTTTAHLATTRNTSPSLGESRGTKDLPPVKDPGALSREGLLAPLGLLAILTLAVATLYGLSLATPGE [TREX1] | 53.5 °C | 56.2 °C | -0.198 | 0.329
2 | MGSTVPRSASVLLLLLLLRRAEQPCGAELTFELPDNAKQCFHEEVEQGVKFSLDYQVITGGHYDVDCYVEDPQGNTIYRETKKQYDSFTYRAEVKGVYQFCFSNEFSTFSHKTVYFDFQVGDEPPILPDMGNRVTALTQMESACVTIHEALKTVIDSQTHYRLREAQDRARAEDLNSRVSYWSVGETIALFVVSFSQVLLLKSFFTEKRPISRAVHS [TMED3] | 53.4 °C | 53.4 °C | -0.0742 | -0.000936
3 | MHQPPESTAAAAAAADISARKMAHPAMFPRRGSGSGSASALNAAGTGVGSNATSSEDFPPPSLLQPPPPAASSTSGPQPPPPQSLNLLSQAQLQAQPLAPGGTQMKKKSGFQITSVTPAQISASISSNNSIAEDTESYDDLDESHTEDLSSSEILDVSLSRATDLGEPERSSSEETLNNFQEAETPGAVSPNQPHLPQPHLPHLPQQNVVINGNAHPHHLHHHHQIHHGHHLQHGHHHPSHVAVASASITGGPPSSPVSRKLSTTGSSDSITPVAPTSAVSSSGSPASVMTNMRAPSTTGGIGINSVTGTSTVNNVNITAVGSFNPNVTSSMLGNVNISTSNIPSAAGVSVGPGVTSGVNVNILSGMGNGTISSSAAVSSVPNAAAGMTGGSVSSQQQQPTVNTSRFRVVKLDSSSEPFKKGRWTCTEFYEKENAVPATEGVLINKVVETVKQNPIEVTSERESTSGSSVSSSVSTLSHYTESVGSGEMGAPTVVVQQQQQQQQQQQQQPALQGVTLQQMDFGSTGPQSIPAVSIPQSISQSQISQVQLQSQELSYQQKQGLQPVPLQATMSAATGIQPSPVNVVGVTSALGQQPSISSLAQPQLPYSQAAPPVQTPLPGAPPPQQLQYGQQQPMVSTQMAPGHVKSVTQNPASEYVQQQPILQTAMSSGQPSSAGVGAGTTVIPVAQPQGIQLPVQPTAVPAQPAGASVQPVGQAPAAVSAVPTGSQIANIGQQANIPTAVQQPSTQVPPSVIQQGAPPSSQVVPPAQTGIIHQGVQTSAPSLPQQLVIASQSSLLTVPPQPQGVEPVAQGIVSQQLPAVSSLPSASSISVTSQVSSTGPSGMPSAPTNLVPPQNIAQTPATQNGNLVQSVSQPPLIATNTNLPLAQQIPLSSTQFSAQSLAQAIGSQIEDARRAAEPSLVGLPQTISGDSGGMSAVSDGSSSSLAASASLFPLKVLPLTTPLVDGEDESSSGASVVAIDNKIEQAMDLVKSHLMYAVREEVEVLKEQIKELIEKNSQLEQENNLLKTLASPEQLAQFQAQLQTGSPPATTQPQGTTQPPAQPASQGSGPTA [TSC22D1] | 54.4 °C | 53.1 °C | -0.382 | -0.0765
4 | MITKTHKVDLGLPEKKKKKKVVKEPETRYSVLNNDDYFADVSPLRATSPSKSVAHGQAPEMPLVKKKKKKKKGVSTLCEEHVEPETTLPARRTEKSPSLRKQVFGHLEFLSGEKKNKKSPLAMSHASGVKTSPDPRQGEEETRVGKKLKKHKKEKKGAQDPTAFSVQDPWFCEAREARDVGDTCSVGKKDEEQAALGQKRKRKSPREHNGKVKKKKKIHQEGDALPGHSKPSRSMESSPRKGSKKKPVKVEAPEYIPISDDPKASAKKKMKSKKKVEQPVIEEPALKRKKKKKRKESGVAGDPWKEETDTDLEVVLEKKGNMDEAHIDQVRRKALQEEIDRESGKTEASETRKWTGTQFGQWDTAGFENEDQKLKFLRLMGGFKNLSPSFSRPASTIARPNMALGKKAADSLQQNLQRDYDRAMSWKYSRGAGLGFSTAPNKIFYIDRNASKSVKLED [KNOP1] | 54.2 °C | 52.1 °C | -1.76 | 1.57
5 | MLFKLLQRQTYTCLSHRYGLYVCFLGVVVTIVSAFQFGEVVLEWSRDQYHVLFDSYRDNIAGKSFQNRLCLPMPIDVVYTWVNGTDLELLKELQQVREQMEEEQKAMREILGKNTTEPTKKSEKQLECLLTHCIKVPMLVLDPALPANITLKDLPSLYPSFHSASDIFNVAKPKNPSTNVSVVVFDSTKDVEDAHSGLLKGNSRQTVWRGYLTTDKEVPGLVLMQDLAFLSGFPPTFKETNQLKTKLPENLSSKVKLLQLYSEASVALLKLNNPKDFQELNKQTKKNMTIDGKELTISPAYLLWDLSAISQSKQDEDISASRFEDNEELRYSLRSIERHAPWVRNIFIVTNGQIPSWLNLDNPRVTIVTHQDVFRNLSHLPTFSSPAIESHIHRIEGLSQKFIYLNDDVMFGKDVWPDDFYSHSKGQKVYLTWPVPNCAEGCPGSWIKDGYCDKACNNSACDWDGGDCSGNSGGSRYIAGGGGTGSIGVGQPWQFGGGINSVSYCNQGCANSWLADKFCDQACNVLSCGFDAGDCGQDHFHELYKVILLPNQTHYIIPKGECLPYFSFAEVAKRGVEGAYSDNPIIRHASIANKWKTIHLIMHSGMNATTIHFNLTFQNTNDEEFKMQITVEVDTREGPKLNSTAQKGYENLVSPITLLPEAEILFEDIPKEKRFPKFKRHDVNSTRRAQEEVKIPLVNISLLPKDAQLSLNTLDLQLEHGDITLKGYNLSKSALLRSFLMNSQHAKIKNQAIITDETNDSLVAPQEKQVHKSILPNSLGVSERLQRLTFPAVSVKVNGHDQGQNPPLDLETTARFRVETHTQKTIGGNVTKEKPPSLIVPLESQMTKEKKITGKEKENSRMEENAENHIGVTEVLLGRKLQHYTDSYLGFLPWEKKKYFQDLLDEEESLKTQLAYFTDSKNTGRQLKDTFADSLRYVNKILNSKFGFTSRKVPAHMPHMIDRIVMQELQDMFPEEFDKTSFHKVRHSEDMQFAFSYFYYLMSAVQPLNISQVFDEVDTDQSGVLSDREIRTLATRIHELPLSLQDLTGLEHMLINCSKMLPADITQLNNIPPTQESYYDPNLPPVTKSLVTNCKPVTDKIHKAYKDKNKYRFEIMGEEEIAFKMIRTNVSHVVGQLDDIRKNPRKFVCLNDNIDHNHKDAQTVKAVLRDFYESMFPIPSQFELPREYRNRFLHMHELQEWRAYRDKLKFWTHCVLATLIMFTIFSFFAEQLIALKRKIFPRRRIHKEASPNRIRV [GNPTAB] | 53.9 °C | 54.1 °C | 0.263 | -0.00222
6 | MLGLCGQRLPAAWVLLLLPFLPLLLLAAPAPHRASYKPVIVVHGLFDSSYSFRHLLEYINETHPGTVVTVLDLFDGRESLRPLWEQVQGFREAVVPIMAKAPQGVHLICYSQGGLVCRALLSVMDDHNVDSFISLSSPQMGQYGDTDYLKWLFPTSMRSNLYRICYSPWGQEFSICNYWHDPHHDDLYLNASSFLALINGERDHPNATVWRKNFLRVGHLVLIGGPDDGVITPWQSSFFGFYDANETVLEMEEQLVYLRDSFGLKTLLARGAIVRCPMAGISHTAWHSNRTLYETCIEPWLS [PPT2] | 56.4 °C | 55.9 °C | 0.733 | -0.131
7 | MMGCFALQTVDTELTADSVEWCPLQGCRHLLACGTYQLRRPEDRPAGPQNKGGMEVKEPQVRLGRLFLYSFNDNNSIHPLVEVQRKDTSAILDMKWCHIPVAGHALLGLADASGSIQLLRLVESEKSHVLEPLSSLALEEQCLALSLDWSTGKTGRAGDQPLKIISSDSTGQLHLLMVNETRPRLQKVASWQAHQFEAWIAAFNYWHPEIVYSGGDDGLLRGWDTRVPGKFLFTSKRHTMGVCSIQSSPHREHILATGSYDEHILLWDTRNMKQPLADTPVQGGVWRIKWHPFHHHLLLAACMHSGFKILNCQKAMEERQEATVLTSHTLPDSLVYGADWSWLLFRSLQRAPSWSFPSNLGTKTADLKGASELPTPCHECREDNDGEGHARPQSGMKPLTEGMRKNGTWLQATAATTRDCGVNPEEADSAFSLLATCSFYDHALHLWEWEGN [DPH7] |  | 57.1 °C | -0.0249 | -0.0679
8 | MMWQKYAGSRRSMPLGARILFHGVFYAGGFAIVYYLIQKFHSRALYYKLAVEQLQSHPEAQEALGPPLNIHYLKLIDRENFVDIVDAKLKIPVSGSKSEGLLYVHSSRGGPFQRWHLDEVFLELKDGQQIPVFKLSGENGDEVKKE [COA1] | 54.7 °C | 55.7 °C | 0.0268 | 0.0489
9 | MNRPAPVEISYENMRFLITHNPTNATLNKFTEELKKYGVTTLVRVCDATYDKAPVEKEGIHVLDWPFDDGAPPPNQIVDDWLNLLKTKFREEPGCCVAVHCVAGLGRAPVLVALALIECGMKYEDAVQFIRQKRRGAFNSKQLLYLEKYRPKMRLRFRDTNGHCCVQ [PTP4A2] | 53.7 °C | 54.1 °C | -0.226 | -0.087
10 | MPAFLGLKCLGKLCSSEKSKVTSSERTSARGSNRKRLIVEDRRVSGTSFTAHRRATITHLLYLCPKDYCPRGRVCNSVDPFVAHPQDPHHPSEKPVIHCHKCGEPCKGEVLRVQTKHFHIKCFTCKVCGCDLAQGGFFIKNGEYLCTLDYQRMYGTRCHGCGEFVEGEVVTALGKTYHPNCFACTICKRPFPPGDRVTFNGRDCLCQLCAQPMSSSPKETTFSSNCAGCGRDIKNGQALLALDKQWHLGCFKCKSCGKVLTGEYISKDGAPYCEKDYQGLFGVKCEACHQFITGKVLEAGDKHYHPSCARCSRCNQMFTEGEEMYLQGSTVWHPDCKQSTKTEEKLRPTRTSSESIYSRPGSSIPGSPGHTIYAKVDNEILDYKDLAAIPKVKAIYDIERPDLITYEPFYTSGYDDKQERQSLGESPRTLSPTPSAEGYQDVRDRMIHRSTSQGSINSPVYSRHSYTPTTSRSPQHFHRPGNEPSSGRNSPLPYRPDSRPLTPTYAQAPKHFHVPDQGINIYRKPPIYKQHAALAAQSKSSEDIIKFSKFPAAQAPDPSETPKIETDHWPGPPSFAVVGPDMKRRSSGREEDDEELLRRRQLQEEQLMKLNSGLGQLILKEEMEKESRERSSLLASRYDSPINSASHIPSSKTASLPGYGRNGLHRPVSTDFAQYNSYGDVSGGVRDYQTLPDGHMPAMRMDRGVSMPNMLEPKIFPYEMLMVTNRGRNKILREVDRTRLERHLAPEVFREIFGMSIQEFDRLPLWRRNDMKKKAKLF [ABLIM1] | 46.2 °C | 51.7 °C | -0.8 | 0.599
